Here are results for 3 molecules from patent US20210087291A1 (Hoffmann-La Roche, published 2021).

Read-outs that look alike come from different tables or passages of the source.

For assay [1], the target named is T1, human FolR1 on cells (human, UniProt P15328 25-234).
T1 construct: also called FolR1 on HeLa, SKOV3, HT-29 tumor cells; HEK cells transfected with human FolR1
As to the kind of experiment: flow cytometry on HeLa cells (human FolR1), fluorescently labeled anti-human secondary antibody.
Protocol: (§1) Binding of newly generated FolR1 binders to FolR1 expressed on HeLa cells were determined by flow cytometry. Bound antibodies were detected with a fluorescently labeled anti-human secondary antibody.
(§2) The identified binders were converted into a human IgG1 format and binding to FolR1 high expressing HeLa cells was addressed.

The target of assay [2] is T2, murine FolR1 ECD-AcTev-Fcknob-Avitag + Fc hole, biotinylated monomeric Fc fusion (murine, UniProt P0DOX5 223-449 = IgG part).
T2 construct: also called muFolR1; murine FolR1-Fc
As to the kind of experiment: SPR, apparent KD, bivalent binding, 2.3 uM folate in running buffer.
Protocol: (§3) Binding of FolR1 binders as IgG or in the T-cell bispecific format to different recombinant folate receptors (human FolR1, 2 and 3, murine FolR1 and cynomolgus FolR1; all as Fc fusions) was assessed by surface plasmon resonance (SPR).
(§4) Recombinant biotinylated monomeric Fc fusions of human, cynomolgus and murine Folate Receptor 1 (FolR1-Fc) were directly coupled on a SA chip using the standard coupling instruction (Biacore, Freiburg/Germany). The immobilization level was about 300-400 RU. The anti-FolR1 IgGs or T cell bispecifics were passed at a concentration range from 2.1 to 500 nM with a flow of 30 μL/minutes through the flow cells over 180 seconds. The dissociation was monitored for 600 seconds. Bulk refractive index differences were corrected for by subtracting the response obtained on reference flow cell immobilized with recombinant biotinylated IL2 receptor Fc fusion. […] The binding curves resulting from the bivalent binding of the IgGs or T cell bispecifics were approximated to a 1:1 Langmuir binding and fitted with that model (which is not correct, but gives an idea of the avidity). The apparent avidity constants for the interactions were derived from the rate constants of the fitting using the Bia Evaluation software (GE Healthcare).

In assay [3] the target is T3, cynomolgus FolR1 ECD-AcTev-Fcknob-Avi tag + Fc hole, biotinylated monomeric Fc fusion (cynomolgus, UniProt P0DOX5 223-449 = IgG part).
T3 construct: also called cyFolR1; cyno FolR1-Fc
As to the kind of experiment: SPR, IgG single injection.

For assay [4], the target named is T4, human FolR1 ECD-AcTev-Fcknob-Avi tag + Fc hole, biotinylated monomeric Fc fusion (human, UniProt P0DOX5 223-449 = IgG part).
T4 construct: also called huFolR1; huFolR1-Fc
As to the kind of experiment: SPR, IgG single injection. A general note: In SPR one partner is held on a chip, and binding of the other changes the refractive index at the surface.

Assay [5] addresses T5, human FolR3 ECD-AcTev-Fcknob-Avi tag + Fc hole, biotinylated monomeric Fc fusion (human, UniProt P0DOX5 223-449 = IgG part).
T5 construct: also called huFolR3; FolR3-Fc
As to the kind of experiment: SPR, IgG single injection.

The target of assay [6] is T6, human FolR2 ECD-AcTev-Fcknob-Avi tag + Fc hole, biotinylated monomeric Fc fusion (human, UniProt P0DOX5 223-449 = IgG part).
T6 construct: also called huFolR2; FolR2-Fc
As to the kind of experiment: SPR, IgG single injection.

Assay [7] addresses T2, murine FolR1 ECD-AcTev-Fcknob-Avitag + …. As to the kind of experiment: SPR, 500 nM IgG single injection.
In assay [8] the target is human FolR2 on transiently transfected HEK cells (human, UniProt P14207 17-230). As to the kind of experiment: flow cytometry on HEK cells transiently transfected with human FolR2, anti-human secondary antibody; concentration not given. For orientation: In flow cytometry, cells or beads pass a laser one at a time.
human FolR2 on transiently transfected HEK cells, sequence (P14207 17-230 limits assumed): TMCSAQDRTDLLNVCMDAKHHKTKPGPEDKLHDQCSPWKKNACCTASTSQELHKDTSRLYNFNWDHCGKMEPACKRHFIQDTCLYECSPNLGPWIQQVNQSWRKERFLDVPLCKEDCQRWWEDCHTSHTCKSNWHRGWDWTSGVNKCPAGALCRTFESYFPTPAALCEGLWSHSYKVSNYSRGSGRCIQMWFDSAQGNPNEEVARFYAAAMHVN
Assay [9] deals with T1, human FolR1 on cells. As to the kind of experiment: flow cytometry on HeLa cells (human FolR1), fluorescently labeled anti-human secondary antibody. The source holds these as a separate data set.
Protocol: as §1, §2
Assay [10] addresses T7, cynomolgus FolR1 on transiently transfected HEK cells (cynomolgus, UniProt P15328 25-234 (human entry)).
T7 construct: also called cyno FolR1; cyFoLR1
As to the kind of experiment: flow cytometry on HEK cells transiently transfected with cyno FolR1, anti-human secondary antibody.
Description: Cross-reactivity of the FolR1 antibodies to cyno FolR1 was addressed on HEK cells transiently transfected with cyFolR1 by flow cytometry. The antibodies were detected with a fluorescently labeled anti-human secondary antibody.
In parallel cross-reactivity of the FolR1 clones to cyno FolR1 was addressed by performing binding studies to HEK cells transiently transfected with cyno FolR1.

Assay [11] concerns the target T3, cynomolgus FolR1 ECD-AcTev-Fcknob-Avi …. As to the kind of experiment: SPR, apparent KD, bivalent binding (avidity).
Protocol: as §3, §4
Assay [12] addresses T4, human FolR1 ECD-AcTev-Fcknob-Avi tag + …. As to the kind of experiment: SPR, apparent KD, bivalent binding (avidity).
Protocol: as §3, §4
The target in assay [13] is T2, murine FolR1 ECD-AcTev-Fcknob-Avitag + …. As to the kind of experiment: SPR, apparent KD, bivalent binding (avidity).
Protocol: as §3, §4
Assay [14] concerns the target T3, cynomolgus FolR1 ECD-AcTev-Fcknob-Avi …. As to the kind of experiment: SPR, bivalent binding (avidity), antigen on SA chip.
Protocol: as §3, §4
The target of assay [15] is T4, human FolR1 ECD-AcTev-Fcknob-Avi tag + …. The description is as above.
Protocol: as §3, §4
The target of assay [16] is T2, murine FolR1 ECD-AcTev-Fcknob-Avitag + …. The assay is described as above.
Protocol: as §3, §4

T1 sequence (P15328 25-234 limits assumed): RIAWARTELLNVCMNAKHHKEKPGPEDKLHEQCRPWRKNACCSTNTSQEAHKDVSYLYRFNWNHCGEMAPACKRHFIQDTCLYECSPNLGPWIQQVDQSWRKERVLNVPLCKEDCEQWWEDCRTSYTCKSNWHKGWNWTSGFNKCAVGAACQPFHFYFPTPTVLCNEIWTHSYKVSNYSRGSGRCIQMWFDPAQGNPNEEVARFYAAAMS
T7 sequence (P15328 other isoform, or with tags, fused parts or gaps limits assumed): as the sequence (P15328 25-234 limits assumed) above, with I2T, W4R, R37K, Q117R, A146P, H171Y counted along it

B1: 19H3 IgG (antibody, V domains shown)
VH: QVQLVQSGAEVKKPGASVKVSCKASGYTFTSYYMHWVRQAPGQGLEWMGIINPSGGSTSYAQKFQGRVTMTRDTSTSTVYMELSSLRSEDTAVYYCARTGWSRWGYMDYWGQGTLVTVSS
VL: QAVVTQEPSLTVSPGGTVTLTCGSSTGAVTTSNYANWVQEKPGQAFRGLIGGTNKRAPGTPARFSGSLLGGKAALTLSGAQPEDEAEYYCALWYSNLWVFGGGTKLTVL
notes: human IgG1
For the molecule B1, the binding result in the assay with human FolR1 on cells [1] is recorded as “binds”; in [3], “no binding (tested: 500 nM)”; in assay [4] it was “no binding (tested: 500 nM)”; in assay [5], “no binding (tested: 500 nM)”; in assay [6] it was “no binding (tested: 500 nM)”. Moreover, the Kd in assay [2] turned out to be 1.55 nM.

B2: 20H7 IgG (antibody, V domains shown)
VH: QVQLVQSGAEVKKPGASVKVSCKASGYTFTSYYMHWVRQAPGQGLEWMGIINPSGGSTSYAQKFQGRVTMTRDTSTSTVYMELSSLRSEDTAVYYCARVGWYRWGYMDYWGQGTLVTVSS
VL: QAVVTQEPSLTVSPGGTVTLTCGSSTGAVTTSNYANWVQEKPGQAFRGLIGGTNKRAPGTPARFSGSLLGGKAALTLSGAQPEDEAEYYCALWYSNLWVFGGGTKLTVL
notes: human IgG1
For the molecule B2, the figures for the binding result in [7], in assay [5] and in assay [6] were “binds”, “no binding (tested: 500 nM)” and “no binding (tested: 500 nM)”, respectively.

B3: 36F2 IgG (antibody, V domains shown)
VH: QVQLVQSGAEVKKPGASVKVSCKASGYTFTSYYMHWVRQAPGQGLEWMGIINPSGGSTSYAQKFQGRVTMTHDTSTSTVYMELSSLRSEDTAVYYCARSFFTGFHLDYWGQGTLVTVSS
VL: EIVLTQSPGTLSLSPGERATLSCRASQSVSSSYLAWYQQKPGQAPRLLIYGASSRATGIPDRFSGSGSGTDFTLTISRLEPEDFAVYYCQQYTNEHYYTFGQGTKVEIK
notes: human IgG1
By koff is commonly meant the rate constant with which the complex falls apart. The term kon denotes the second-order rate constant of association. Consider B3, for which the binding result in assay [8] is on record as “no binding”; with human FolR1 on cells [9] it was “binds”; in assay [10] it was “binds”; in assay [5] it was “no binding (tested: 500 nM)”; in assay [6] it was “no binding (tested: 500 nM)”. The Kd in [11] was determined as 5.31 nM; in assay [12], 5.74 nM; in [13], 1.63 nM. In addition, the results for the koff in assay [14], in assay [15] and in assay [16] were 0.016 s⁻¹, 0.0151 s⁻¹ and 0.000603 s⁻¹, respectively. The kon was found to be 3.02e+06 M⁻¹ s⁻¹ in assay [14], 2.62e+06 M⁻¹ s⁻¹ in assay [15] and 370000 M⁻¹ s⁻¹ in [16].
